Key:
Assay in all cases: cell-based or functional assay
hGLP-1R = hGLP-1R (Homo sapiens, UniProt P43220)
[1] = biological target: human glucagon receptor (human) (UniProt P47871)
[2] = biological target: T1, human GIP receptor (human) (UniProt P48546)
T1 sequence (looked up): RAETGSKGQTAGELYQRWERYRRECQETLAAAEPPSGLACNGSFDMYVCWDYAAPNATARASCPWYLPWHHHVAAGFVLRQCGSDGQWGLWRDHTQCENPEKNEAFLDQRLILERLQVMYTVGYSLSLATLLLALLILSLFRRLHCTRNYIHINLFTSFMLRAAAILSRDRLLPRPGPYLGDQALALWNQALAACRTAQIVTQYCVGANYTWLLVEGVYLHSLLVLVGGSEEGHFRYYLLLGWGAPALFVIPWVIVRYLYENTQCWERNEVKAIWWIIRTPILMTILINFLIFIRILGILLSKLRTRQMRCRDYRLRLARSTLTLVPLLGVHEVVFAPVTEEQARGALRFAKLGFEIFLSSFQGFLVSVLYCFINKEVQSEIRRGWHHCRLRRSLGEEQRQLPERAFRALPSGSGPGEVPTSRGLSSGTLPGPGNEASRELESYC

Chain of hGLP-1R (P43220 24-463): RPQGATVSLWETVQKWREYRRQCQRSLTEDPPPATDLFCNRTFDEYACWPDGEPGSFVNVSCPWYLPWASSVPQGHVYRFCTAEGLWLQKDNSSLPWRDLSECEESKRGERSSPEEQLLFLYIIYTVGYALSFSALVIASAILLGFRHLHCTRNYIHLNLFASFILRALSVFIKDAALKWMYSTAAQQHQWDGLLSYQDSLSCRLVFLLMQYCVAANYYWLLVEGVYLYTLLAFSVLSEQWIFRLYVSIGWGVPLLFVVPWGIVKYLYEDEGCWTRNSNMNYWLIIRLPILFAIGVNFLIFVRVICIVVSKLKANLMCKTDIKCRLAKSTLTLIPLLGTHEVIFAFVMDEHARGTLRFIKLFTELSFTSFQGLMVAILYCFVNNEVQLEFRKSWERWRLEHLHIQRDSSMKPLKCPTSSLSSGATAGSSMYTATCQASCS
Chain of human glucagon receptor (human) (P47871 26-477): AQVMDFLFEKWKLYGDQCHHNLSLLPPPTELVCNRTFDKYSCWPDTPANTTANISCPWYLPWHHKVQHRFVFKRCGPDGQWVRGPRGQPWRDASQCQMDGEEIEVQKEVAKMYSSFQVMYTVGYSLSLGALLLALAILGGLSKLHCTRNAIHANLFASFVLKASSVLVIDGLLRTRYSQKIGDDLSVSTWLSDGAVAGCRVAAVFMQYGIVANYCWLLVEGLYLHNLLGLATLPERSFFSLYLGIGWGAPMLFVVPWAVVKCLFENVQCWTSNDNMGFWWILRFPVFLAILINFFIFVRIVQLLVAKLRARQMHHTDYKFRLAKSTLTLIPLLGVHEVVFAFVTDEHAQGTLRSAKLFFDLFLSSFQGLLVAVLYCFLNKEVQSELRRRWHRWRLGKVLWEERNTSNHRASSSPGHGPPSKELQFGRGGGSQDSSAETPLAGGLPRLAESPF

B1: Example 604 (peptide)
chain: YXQGTXTSDXXILLDXKAQXXFIEYLIEGGPSSGEPPPEGAEE
modifications: non-natural residues; Lys acylated C18 diacid; C-terminal amide; synthetic construct; SITE 2: note = 2-Aminoisobutyric Acid; SITE 6: note = alpha-methyl-2-fluoro-L-phenylalanine; SITE 10: note = 3-(4-Pyridyl)-L-alanine; SITE 11: note = alpha-methyl-L-serine; SITE 16: note = L-ornithine; SITE 17: note = Lysine is chemically modified through conjugation of the epsi
- Relative cAMP EC50 (hGLP-1R): 0.705 nM
- cAMP Rel EC50 (in the presence of 1% HSA) (hGLP-1R): 51 nM
- Relative cAMP EC50 [1]: 5.5 nM
- cAMP Rel EC50 (in the presence of 1% HSA) [1]: 427 nM
- Relative cAMP EC50 [2]: 0.161 nM
- cAMP Rel EC50 (in the presence of 1% HSA) [2]: 4.84 nM

B2: Example 606 (peptide)
chain: YXQGTXTSDXXILLDXKAQXXFIEYLIEGGPSSGEPPPEGEEE
modifications: Lys acylated (γ-Glu)2-C18 diacid; non-natural residues; C-terminal amide; synthetic construct; SITE 2: note = 2-Aminoisobutyric Acid; SITE 6: note = alpha-methyl-2-fluoro-L-phenylalanine; SITE 10: note = 3-(4-Pyridyl)-L-alanine; SITE 11: note = alpha-methyl-L-serine; SITE 16: note = L-ornithine; SITE 17: note = Lysine is chemically modified through conjugation of the epsi
- Relative cAMP EC50 (hGLP-1R): 0.786 nM
- cAMP Rel EC50 (in the presence of 1% HSA) (hGLP-1R): 53.1 nM
- Relative cAMP EC50 [1]: 5.01 nM
- cAMP Rel EC50 (in the presence of 1% HSA) [1]: 474 nM
- Relative cAMP EC50 [2]: 0.17 nM
- cAMP Rel EC50 (in the presence of 1% HSA) [2]: 5.69 nM

B3: Example 605 (peptide)
chain: YXQGTXTSDXXILLDXKAQXXFIEYLIEGGPSSGEPPPEGGEE
modifications: Aib, αMeF(2F), 4Pal, αMeS, Orn; acylated lysine; amide; synthetic construct; SITE 2: note = 2-Aminoisobutyric Acid; SITE 6: note = alpha-methyl-2-fluoro-L-phenylalanine; SITE 10: note = 3-(4-Pyridyl)-L-alanine; SITE 11: note = alpha-methyl-L-serine; SITE 16: note = L-ornithine; SITE 17: note = Lysine is chemically modified through conjugation of the epsi
- Relative cAMP EC50 (hGLP-1R): 0.795 nM
- cAMP Rel EC50 (in the presence of 1% HSA) (hGLP-1R): 56.2 nM
- Relative cAMP EC50 [1]: 5.49 nM
- cAMP Rel EC50 (in the presence of 1% HSA) [1]: 353 nM
- Relative cAMP EC50 [2]: 0.132 nM
- cAMP Rel EC50 (in the presence of 1% HSA) [2]: 6.69 nM

B4: Example 613 (peptide)
chain: YXQGTXTSDXSIXLDXKAQXEFIEXLLEGGPSSGAPPPSGE
modifications: Aib, αMeF(2F), 4Pal, Orn, (AEEA)2-γGlu-C18 diacid, amide; synthetic construct; SITE 2: note = 2-Aminoisobutyric Acid; SITE 6: note = alpha-methyl-2-fluoro-L-phenylalanine; SITE 10: note = 3-(4-Pyridyl)-L-alanine; SITE 13: note = alpha-methyl-leucine; SITE 16: note = L-ornithine; SITE 17: note = Lysine is chemically modified through conjugation of the epsil
- Relative cAMP EC50 (hGLP-1R): 0.698 nM
- cAMP Rel EC50 (in the presence of 1% HSA) (hGLP-1R): 81.6 nM
- Relative cAMP EC50 [1]: 20.4 nM
- cAMP Rel EC50 (in the presence of 1% HSA) [1]: 1410 nM
- Relative cAMP EC50 [2]: 0.00925 nM
- cAMP Rel EC50 (in the presence of 1% HSA) [2]: 0.791 nM

B5: Example 615 (peptide)
chain: YXQGTXTSDXSIXLDXKAQXEFIEXLLEGGPSSGAPPPSGE
modifications: Aib, αMeF(2F), 4Pal, Orn, Me4Pal, αMeY; acylated lysine; amide; synthetic construct; SITE 2: note = 2-Aminoisobutyric Acid; SITE 6: note = alpha-methyl-2-fluoro-L-phenylalanine; SITE 10: note = 3-(4-Pyridyl)-L-alanine; SITE 13: note = alpha-methyl-leucine; SITE 16: note = L-ornithine; SITE 17: note = Lysine is chemically modified through conjugation of the epsil
- Relative cAMP EC50 (hGLP-1R): 0.575 nM
- cAMP Rel EC50 (in the presence of 1% HSA) (hGLP-1R): 82.9 nM
- Relative cAMP EC50 [1]: 3.93 nM
- cAMP Rel EC50 (in the presence of 1% HSA) [1]: 697 nM
- Relative cAMP EC50 [2]: 0.00825 nM
- cAMP Rel EC50 (in the presence of 1% HSA) [2]: 0.95 nM

B6: Example 614 (peptide)
chain: YXQGTXTSDXSIXLDXKAQXEFIEXLIEGGPSSGAPPPSGE
modifications: non-natural residues, acylated Lys, C-terminal amide; synthetic construct; SITE 2: note = 2-Aminoisobutyric Acid; SITE 6: note = alpha-methyl-2-fluoro-L-phenylalanine; SITE 10: note = 3-(4-Pyridyl)-L-alanine; SITE 13: note = alpha-methyl-leucine; SITE 16: note = L-ornithine; SITE 17: note = Lysine is chemically modified through conjugation of the epsil
- Relative cAMP EC50 (hGLP-1R): 0.251 nM
- cAMP Rel EC50 (in the presence of 1% HSA) (hGLP-1R): 33.2 nM
- Relative cAMP EC50 [1]: 6.36 nM
- cAMP Rel EC50 (in the presence of 1% HSA) [1]: 724 nM
- Relative cAMP EC50 [2]: 0.0065 nM
- cAMP Rel EC50 (in the presence of 1% HSA) [2]: 0.597 nM

B7: Example 616 (peptide)
chain: YXQGTXTSDXSIXLDXKAQXEFIEXLIEGGPSSGAPPPSGE
modifications: non-natural residues; acylated Lys; C-terminal amide; synthetic construct; SITE 2: note = 2-Aminoisobutyric Acid; SITE 6: note = alpha-methyl-2-fluoro-L-phenylalanine; SITE 10: note = 3-(4-Pyridyl)-L-alanine; SITE 13: note = alpha-methyl-leucine; SITE 16: note = L-ornithine; SITE 17: note = Lysine is chemically modified through conjugation of the epsil
- Relative cAMP EC50 (hGLP-1R): 0.29 nM
- cAMP Rel EC50 (in the presence of 1% HSA) (hGLP-1R): 28.9 nM
- Relative cAMP EC50 [1]: 6.58 nM
- cAMP Rel EC50 (in the presence of 1% HSA) [1]: 734 nM
- Relative cAMP EC50 [2]: 0.00727 nM
- cAMP Rel EC50 (in the presence of 1% HSA) [2]: 0.467 nM

B8: Example 607 (peptide)
chain: YXQGTXTSDXSILLDKKAQXAFIEYLEEGGPSSGEPPPSGTGE
modifications: Aib, αMeF(2F), 4Pal; acylated K; C-terminal amide; synthetic construct; SITE 2: note = 2-Aminoisobutyric Acid; SITE 6: note = alpha-methyl-2-fluoro-L-phenylalanine; SITE 10: note = 3-(4-Pyridyl)-L-alanine; SITE 17: note = Lysine is chemically modified through conjugation of the epsilon-amino group of the Lysine side chain with (gamma-Glu)2-CO-(CH2)1
- Relative cAMP EC50 (hGLP-1R): 1.15 nM
- cAMP Rel EC50 (in the presence of 1% HSA) (hGLP-1R): 139 nM
- Relative cAMP EC50 [1]: 8.91 nM
- cAMP Rel EC50 (in the presence of 1% HSA) [1]: 565 nM
- Relative cAMP EC50 [2]: 0.0879 nM
- cAMP Rel EC50 (in the presence of 1% HSA) [2]: 6.63 nM

B9: Example 608 (peptide)
chain: YXQGTXTSDXSILLDKKAQXAFIEYLEEGGPSSGEPPPSGTEE
modifications: non-natural residues, acylated Lys ((γGlu)2-C18 diacid), C-terminal amide; synthetic construct; SITE 2: note = 2-Aminoisobutyric Acid; SITE 6: note = alpha-methyl-2-fluoro-L-phenylalanine; SITE 10: note = 3-(4-Pyridyl)-L-alanine; SITE 17: note = Lysine is chemically modified through conjugation of the epsilon-amino group of the Lysine side chain with (gamma-Glu)2-CO-(CH2)1
- Relative cAMP EC50 (hGLP-1R): 1.87 nM
- cAMP Rel EC50 (in the presence of 1% HSA) (hGLP-1R): 201 nM
- Relative cAMP EC50 [1]: 7.82 nM
- cAMP Rel EC50 (in the presence of 1% HSA) [1]: 669 nM
- Relative cAMP EC50 [2]: 0.124 nM
- cAMP Rel EC50 (in the presence of 1% HSA) [2]: 8.51 nM

B10: Example 622 (peptide)
chain: YXQGTXTSDXSIXLDKKAQXAFIEYLEEGGPSSGAPPPSGTGE
modifications: non-natural residues; (γGlu)2-C18 diacid acyl; C-terminal amide; synthetic construct; SITE 2: note = 2-Aminoisobutyric Acid; SITE 6: note = alpha-methyl-2-fluoro-L-phenylalanine; SITE 10: note = 3-(4-Pyridyl)-L-alanine; SITE 13: note = alpha-methyl-leucine; SITE 17: note = Lysine is chemically modified through conjugation of the epsilon-amino group of the Lysine
- Relative cAMP EC50 (hGLP-1R): 0.776 nM
- cAMP Rel EC50 (in the presence of 1% HSA) (hGLP-1R): 52.3 nM
- Relative cAMP EC50 [1]: 7.7 nM
- cAMP Rel EC50 (in the presence of 1% HSA) [1]: 641 nM
- Relative cAMP EC50 [2]: 0.0148 nM
- cAMP Rel EC50 (in the presence of 1% HSA) [2]: 1.19 nM

B11: Example 630 (peptide)
chain: YXQGTXTSDXSIXLDKKAQXAFIEYLEEGGPSSGEPPPSGSEE
modifications: non-natural residues; lipidated Lys; C-terminal amide; synthetic construct; SITE 2: note = 2-Aminoisobutyric Acid; SITE 6: note = alpha-methyl-2-fluoro-L-phenylalanine; SITE 10: note = 3-(4-Pyridyl)-L-alanine; SITE 13: note = alpha-methyl-leucine; SITE 17: note = Lysine is chemically modified through conjugation of the epsilon-amino group of the Lysine
- Relative cAMP EC50 (hGLP-1R): 0.762 nM
- cAMP Rel EC50 (in the presence of 1% HSA) (hGLP-1R): 74.5 nM
- Relative cAMP EC50 [1]: 8.07 nM
- cAMP Rel EC50 (in the presence of 1% HSA) [1]: 872 nM
- Relative cAMP EC50 [2]: 0.0233 nM
- cAMP Rel EC50 (in the presence of 1% HSA) [2]: 2.96 nM

B12: Example 628 (peptide)
chain: YXQGTXTSDXSIXLDKKAQXAFIEYLEEGGPSSGEPPPEGTGE
modifications: non-natural residues; lipidated Lys; C-terminal amide; synthetic construct; SITE 2: note = 2-Aminoisobutyric Acid; SITE 6: note = alpha-methyl-2-fluoro-L-phenylalanine; SITE 10: note = 3-(4-Pyridyl)-L-alanine; SITE 13: note = alpha-methyl-leucine; SITE 17: note = Lysine is chemically modified through conjugation of the epsilon-amino group of the Lysine
- Relative cAMP EC50 (hGLP-1R): 1.11 nM
- cAMP Rel EC50 (in the presence of 1% HSA) (hGLP-1R): 79.8 nM
- Relative cAMP EC50 [1]: 7.47 nM
- cAMP Rel EC50 (in the presence of 1% HSA) [1]: 651 nM
- Relative cAMP EC50 [2]: 0.0278 nM
- cAMP Rel EC50 (in the presence of 1% HSA) [2]: 1.87 nM

B13: Example 626 (peptide)
chain: YXQGTXTSDXSIXLDKKAQXAFIEYLEEGGPSSGAPPPEGTGE
modifications: non-natural residues, (γGlu)2-diacid acylated Lys, C-terminal amide; synthetic construct; SITE 2: note = 2-Aminoisobutyric Acid; SITE 6: note = alpha-methyl-2-fluoro-L-phenylalanine; SITE 10: note = 3-(4-Pyridyl)-L-alanine; SITE 13: note = alpha-methyl-leucine; SITE 17: note = Lysine is chemically modified through conjugation of the epsilon-amino group of the Lysine
- Relative cAMP EC50 (hGLP-1R): 0.889 nM
- cAMP Rel EC50 (in the presence of 1% HSA) (hGLP-1R): 60.8 nM
- Relative cAMP EC50 [1]: 8.72 nM
- cAMP Rel EC50 (in the presence of 1% HSA) [1]: 546 nM
- Relative cAMP EC50 [2]: 0.0192 nM
- cAMP Rel EC50 (in the presence of 1% HSA) [2]: 1.75 nM

Reference: patent US20240270821A1, “GIP/GLP1/GCG TRI-RECEPTOR AGONISTS AND USES THEREOF” (priority 2023, published 2024)
